Test results: the supplement of paper PMC12667976
± gives the standard error.

B1: library; numbered along this chain (parent)
chain: MATDAALRRLLRLHRTEIAVAVDSAFPLLHALADHDVVPEDKFQETLHLKEKEGCPQAFHALLSWLLTQDSTAILDFWRVLFKDYNLERYGRLQPILDSFPKDVDLSQPRKGRKPPAVPKALVPPPRLPTKRKASEEARAAAPAALTPRGTASPGSQLKAKPPKKPESSAEQQRLPLGNGIQTMSASVQRAVAMSSGDVPGARGAVEGILIQQVFESGGSKKCIQVGGEFYTPSKFEDSGSGKNKARSSSGPKPLVRAKGAQGAAPGGGEARLGQQGSVPAPLALPSDPQLHQKNEDECAVCRDGGELICCDGCPRAFHLACLSPPLREIPSGTWRCSSCLQATVQEVQPRAEEPRPQEPPVETPLPPGLRSAGEEVRGPPGEPLAGMDTTLVYKHLPAPPSAAPLPGLDSSALHPLLCVGPEGQQNLAPGARCGVCGDGTDVLRCTHCAAAFHWRCHFPAGTSRPGTGLRCRSCSGDVTPAPVEGVLAPSPARLAPGPAKDDTASHEPALHRDDLESLLSEHTFDGILQWAIQSMARPAAPFPS

Variants of: B1
Test: AIRE transcriptional activation functional score (insulin promoter-GFP; nonsense median 0, synonymous median 1) (normalised score); higher = higher AIRE activity (more reporter activation)
Conditions: with insulin promoter-GFP reporter in HEK293
Summary of the method: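 Functional scores come from comparing select with non-select enrichment of each variant and subtracting wild type. Codon-optimized AIRE NNN-codon libraries across three regions were integrated via Bxb1 recombinase into HEK293 landing-pad cells with an insulin core promoter-GFP reporter, and integrants sorted at day 7 were expanded 7 days before top 10% GFP and unselected populations were tile-sequenced. Variants needed 10 counts per million in non-select, and values were rescaled to nonsense median 0 and synonymous median 1 before averaging over biological replicates.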

Row | Variant | AIRE transcriptional activation functional score
1 | S491Q | 0.998 ± 0.17
2 | K165I | 2.29 ± 0.49
3 | Q534D | -0.117 ± 0.21
4 | P252L | 1.15 ± 0.28
5 | A373I | 0.836 ± 0.18
6 | P381L | 1.13 ± 0.21
7 | G218N | 0.111 ± 0.11
8 | E207D | 0.788 ± 0.12
9 | E207I | 0.19 ± 0.4
10 | D410H | 1.17 ± 0.092
11 | A61G | 0.214 ± 0.29
12 | A61I | -0.471 ± 0.2
13 | I18L | 0.304 ± 0.57
14 | I18F | 0.0176 ± 0.2
15 | L7R | 0.0717 ± 0.84
16 | L7C | -1 ± 0.98
17 | A73I | 1.33 ± 0.14
18 | A73D | -0.0868 ± 0.094
19 | A6P | 0.153 ± 0.34
20 | P400D | 0.319 ± 0.071
21 | P400W | 1.89 ± 0.07

Row | Variant | AIRE transcriptional activation functional score
22 | A489L | 1.06 ± 0.14
23 | A489F | 1.16 ± 0.26
24 | R351C | 1.19 ± 0.2
25 | R351G | 1.02 ± 0.21
26 | E270A | 0.795 ± 0.25
27 | Q225T | 0.688 ± 0.18
28 | L320T | 1.13 ± 0.24
29 | L320D | 1.14 ± 0.066
30 | F100W | 1.58 ± 0.18
31 | F100E | -0.0797 ± 0.56
32 | V348F | 1 ± 0.03
33 | F525N | -0.231 ± 0.12
34 | D502R | 0.415 ± 0.28
35 | D502C | 0.85 ± 0.27
36 | L341R | 1.16 ± 0.16
37 | V226M | 0.67 ± 0.12
38 | V226G | 0.814 ± 0.2
39 | D198W | -0.417 ± 0.22
40 | F77M | 0.136 ± 0.39
41 | E307K | 1.16 ± 0.32
42 | I528V | 0.759 ± 0.26

Row | Variant | AIRE transcriptional activation functional score
43 | I528R | 0.161 ± 0.23
44 | I528D | 0.302 ± 0.12
45 | C322D | 1.77 ± 0.089
46 | E167D | 1.12 ± 0.48
47 | A500P | 0.844 ± 0.34
48 | G467S | 1.06 ± 0.13
49 | R378C | 0.601 ± 0.14
50 | R378T | 0.986 ± 0.46
51 | Q69W | -0.383 ± 0.21
52 | Q69N | -0.248 ± 0.65
53 | L273N | 0.862 ± 0.052
54 | L122W | 0.871 ± 0.048
55 | L122M | 1.1 ± 0.05
56 | C55A | -0.603 ± 0.34
57 | C55V | 0.628 ± 0.59
58 | H454M | -0.148 ± 0.12
59 | P407T | 1.18 ± 0.27
60 | E508P | 0.813 ± 0.033
61 | H35C | -0.102 ± 0.14
62 | H35V | 0.15 ± 0.43
63 | H35K | -0.196 ± 0.2

Row | Variant | AIRE transcriptional activation functional score
64 | T46G | -0.878 ± 0.15
65 | C223M | 0.937 ± 0.17
66 | C223T | 1.15 ± 0.36
67 | R494W | 1.41 ± 0.26
68 | I211Y | 1.04 ± 0.15
69 | R257F | 0.785 ± 0.1
70 | L175H | 1.33 ± 0.61
71 | V22A | 0.0736 ± 0.4
72 | V22N | -0.13 ± 0.44
73 | Q426Y | 1.54 ± 0.11
74 | Q426M | 1.34 ± 0.16
75 | H523C | -0.042 ± 0.14
76 | K102H | -1.63 ± 1.5
77 | K102F | 1.34 ± 0.057
78 | G305N | 1.16 ± 0.32
79 | G305V | 1.07 ± 0.25
80 | G369Q | 1.43 ± 0.18
81 | G369S | 0.939 ± 0.38
82 | P542G | 0.957 ± 0.13
83 | P542A | 1.19 ± 0.2
